Legend:
CAT = test: Chloramphenicol resistance of pZE-promoter-cat constructs (MIC on LB agar); format: cell-based, E. coli; conditions: lowest chloramphenicol concentration that inhibited growth; promoter driving cat, LB agar with kanamycin, overnight 37° C.
Protocol: pZE-promoter-cat plasmids were created by PCR of the CAT gene from pACYC184 using primers CAT_Sense_MluI: […] (SEQ ID NO: 6) and CAT_Anti_KpnI: […] (SEQ ID NO: 7) and ligated into the proper pZE-promoter construct which was previously digested by KpnI and MluI. Exponential-phase cultures grown in LB supplemented with kanamycin were plated onto LB agar supplemented with kanamycin and various concentrations of chloramphenicol ranging from 0 to 500 μg/ml. After overnight incubation at 37° C., the lowest concentration of chloramphenicol that inhibited the growth of a clone was recorded.
To verify the constitutive nature of all the promoters, each was redeployed into a new construct driving the reporter gene cat. Cultures bearing these constructs were assayed for resistance to chloramphenicol on a rich, solid-phase medium. […] Moreover, these conditions test the promoter library in contrasting medium and growth environments (liquid minimal medium vs. solid complex medium) further underscoring the constitutive nature of the library promoters.

gfp transcript = test: Transcriptional analysis: quantitative RT-PCR of the gfp transcript; format: cell-based, E. coli; conditions: cultures grown 3 hours, relative level
Protocol: Cultures inoculated as previously were grown for 3 hours and the total RNA was extracted from a 1.5 mL sample with a commercial kit (RNEasy, Qiagen Corp). All samples were diluted to a final concentration of 20 μg/mL and stored at −20° C. A commercial kit for RT-PCR (iScript One-Step RT-PCR Kit with SYBR Green, Bio-Rad) was used with a CCD-equipped thermal cycler (iCycler, Bio-Rad) for RT-PCR of the gfp transcript. Primers (sense-[…] (SEQ ID NO: 4) and antisense-[…] (SEQ ID NO: 5)) were used at a final concentration of 100 nM and 20 ng of RNA was used as template in each 50 μL reaction. We performed duplicate cultures for each clone and duplicate extractions for each culture. The threshold cycles for each sample were calculated from the fluorescence data with proprietary software (Bio-Rad, Inc).
To characterize the promoter library directly at the transcriptional level, the relative mRNA levels of gfp transcripts in the above cultures were determined by quantitative RT-PCR. The high correlation between fluorescence and mRNA level (FIG. 4) confirmed that expression was transcriptionally controlled. The data was obtained where GFP fluorescence levels were modulated by the level of oxygen. In this way, selection for promoters, which had differential expression in high and low oxygen conditions was accomplished.

B1: PLTetO1: PLteto-1 promoter, sequence SEQ ID NO: 34, relative to which the mutated promoters are defined (nucleic acid)
DNA: CAATTCCGACGTCTAAGAAACCATTATTATCATGACATTAACCTATAAAAATAGGCGTATCACGAGGCCCTTTCGTCTTCACCTCGAGTCCCTATCAGTGATAGAGATTGACATCCCTATCAGTGATAGAGATACTGAGCACATCAGCAGGACGCACTGACC
modifications: mutant sequence of bacteriophage lambda tetO promoter
- Cm MIC (CAT): 338 µg/mL
- Relative mRNA (gfp transcript): 1
- Promoter Strength (gfp; P from Equation 1, pZE-promoter-gfp(ASV) plasmid, M9G/CAA medium, exponential phase, duplicate cultures): 145,806.85 relative fluorescence units per absorbance unit per hour
- Average Promoter Metric (gfp; average of the scaled mRNA and fluorescence data): 0.8685

Reference: patent US8110672B2, “Promoter engineering and genetic control” (priority 2005, dated 2012)
